Laboratory results taken from publication PMC6973309.

Target: human CX3CR1 (human) (UniProt P49238)
Sequence (P49238 whole entry): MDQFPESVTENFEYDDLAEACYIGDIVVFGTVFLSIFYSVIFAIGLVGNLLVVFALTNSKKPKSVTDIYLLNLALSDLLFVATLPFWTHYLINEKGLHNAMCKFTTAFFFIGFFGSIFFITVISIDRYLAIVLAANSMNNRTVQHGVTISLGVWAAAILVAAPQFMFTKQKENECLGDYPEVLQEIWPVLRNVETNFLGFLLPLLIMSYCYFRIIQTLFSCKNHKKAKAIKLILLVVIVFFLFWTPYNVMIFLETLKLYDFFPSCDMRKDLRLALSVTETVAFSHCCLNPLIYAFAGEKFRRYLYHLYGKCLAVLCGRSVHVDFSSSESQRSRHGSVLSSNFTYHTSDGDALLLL

B1: mouse fractalkine (ligand)
chain: QHLGMTKCEIMCDKMTSRIPVALLIRYQLNQESCGKRAIVLETTQHRRFCADPKEKWVQDAMKHLDHQAAALTKNGGKFEKRVDNVTPGITLATRGLSPSALTKPESATLEDLALELTTISQEARGTMGTSQEPPAAVTGSSLSTSEAQDAGLTAKPQSIGSFEAADISTTVWPSPAVYQSGSSSWAEEKATESPSTTAPSPQVSTTSPSTPEENVGSEGQPPWVQGQDLSPEKSLGSEEINPVHTDNFQERGPGNTVHPSVAPISSEETPSPELVASGSQAPKIEEPIHATADPQKLSVLITPVPDTQAATRRQAVGLLAFLGLLFCLGVAMFAYQSLQGCPRKMAGEMVEGLRYVPRSCGSNSYVLVPV
EC50 in the calcium flux assay: 4.8 nM
